# Laboratory results: patent US20200397860A1, “SLIT AND BONE GROWTH MODULATION” (Cornell University, priority 2018, published 2020)
# Entries after “also recorded” stand apart in the source; their conditions may differ.
# B1: SLIT3: SLIT3 recombinant protein (R&D); secreted ligand of ROBO receptors (protein, UniProt O75094 34-1523, looked up)
# Slit homolog 3 protein: CPTKCTCSAASVDCHGLGLRAVPRGIPRNAERLDLDRNNITRITKMDFAGLKNLRVLHLEDNQVSVIERGAFQDLKQLERLRLNKNKLQVLPELLFQSTPKLTRLDLSENQIQGIPRKAFRGITDVKNLQLDNNHISCIEDGAFRALRDLEILTLNNNNISRILVTSFNHMPKIRTLRLHSNHLYCDCHLAWLSDWLRQRRTVGQFTLCMAPVHLRGFNVADVQKKEYVCPAPHSEPPSCNANSISCPSPCTCSNNIVDCRGKGLMEIPANLPEGIVEIRLEQNSIKAIPAGAFTQYKKLKRIDISKNQISDIAPDAFQGLKSLTSLVLYGNKITEIVKGLFDGLVSLQLLLLNANKINCLRVNTFQDLQNLNLLSLYDNKLQTISKGLFAPLQSIQTLHLAQNPFVCDCHLKWLADYLQDNPIETSGARCSSPRRLANKRISQIKSKKFRCSGSEDYRSRFSSECFMDLVCPEKCRCEGTIVDCSNQKLVRIPSHLPEYVTDLRLNDNEVSVLEATGIFKKLPNLRKINLSNNKIKEVREGAFDGAASVQELMLTGNQLETVHGRVFRGLSGLKTLMLRSNLIGCVSNDTFAGLSSVRLLSLYDNRITTITPGAFTTLVSLSTINLLSNPFNCNCHLAWLGKWLRKRRIVSGNPRCQKPFFLKEIPIQDVAIQDFTCDGNEESSCQLSPRCPEQCTCMETVVRCSNKGLRALPRGMPKDVTELYLEGNHLTAVPRELSALRHLTLIDLSNNSISMLTNYTFSNMSHLSTLILSYNRLRCIPVHAFNGLRSLRVLTLHGNDISSVPEGSFNDLTSLSHLALGTNPLHCDCSLRWLSEWVKAGYKEPGIARCSSPEPMADRLLLTTPTHRFQCKGPVDINIVAKCNACLSSPCKNNGTCTQDPVELYRCACPYSYKGKDCTVPINTCIQNPCQHGGTCHLSDSHKDGFSCSCPLGFEGQRCEINPDDCEDNDCENNATCVDGINNYVCICPPNYTGELCDEVIDHCVPELNLCQHEAKCIPLDKGFSCECVPGYSGKLCETDNDDCVAHKCRHGAQCVDTINGYTCTCPQGFSGPFCEHPPPMVLLQTSPCDQYECQNGAQCIVVQQEPTCRCPPGFAGPRCEKLITVNFVGKDSYVELASAKVRPQANISLQVATDKDNGILLYKGDNDPLALELYQGHVRLVYDSLSSPPTTVYSVETVNDGQFHSVELVTLNQTLNLVVDKGTPKSLGKLQKQPAVGINSPLYLGGIPTSTGLSALRQGTDRPLGGFHGCIHEVRINNELQDFKALPPQSLGVSPGCKSCTVCKHGLCRSVEKDSVVCECRPGWTGPLCDQEARDPCLGHRCHHGKCVATGTSYMCKCAEGYGGDLCDNKNDSANACSAFKCHHGQCHISDQGEPYCLCQPGFSGEHCQQENPCLGQVVREVIRRQKGYASCATASKVPIMECRGGCGPQCCQPTRSKRRKYVFQCTDGSSFVEEVERHLECGCLACS
# Columns and labels:
# [1] = test system: fracture site; assay: Femoral fracture model, local delivery of SLIT3 into the fracture site; assay type: in vivo, mouse
# Experimental: (§1) Micro-CT (μCT) analysis was conducted on a Scanco Medical μCT 35 system at the Citigroup Biomedical Imaging Core using the previously described parameters. (Shim et al. 2013). μCT analysis was performed by an investigator blinded to the genotypes of the animals under analysis.
# For whole-mount immunostaining, retinas were collected from adult mice after systemic or local SLIT3 administration in bone fracture models.
# (§2) Bone fracture was done following previously described protocols with modifications (Bradaschia-Correa et al. 2017). In brief, after anesthesia and surgical site sterilization, an incision above the right anterolateral femur was made. The femur and patella were then exposed, and a 27-gauge syringe needle was inserted parallel with the long axis of the femur through the patellar groove into the marrow cavity. The needle was then removed, and a single cut was made in the middle of the femoral diaphysis using a dremel saw with a diamond thin cutting wheel (VWR, Cat #100230-724). A blunt 25-gauge needle was then inserted into the marrow space through the hole made in the patella to stabilize the fracture. The needle was then trimmed to avoid it from projecting into the patella-femoral joint space. Muscle was then placed over the osteotomy site and stitched with absorbable sutures prior to closing the skin with wound clips.
# (§3) Alternatively, the gelatin sponge was manually soaked with SLITS (300 ug/ml in PBS) or vehicle for 1 hour on ice and immediately placed to the surgical fracture area. All animals were euthanized by CO2 at time points indicated.
# (§4) All bones were tested to failure using four-point bending on a precision electromagnetic-based load frame (EnduraTEC ELF 3200, Bose Corporation, Minnetonka, MC). Femurs were placed with the posterior surface on the lower supports, spaced 9.9 mm apart. The upper supports were spaced 3.3 ram. Load was applied at a rate of 0.1 mm/s until failure occurred. The failure load (N) and bending stiffness […] within the elastic range were calculated from the force-displacement curves and the four-point dimensions.
# [2] = test system: bone marrow endothelial progenitor outgrowth cells (EPOCs); assay: Endothelial cell wound healing (migration) assay; assay type: cell-based, mouse
# Experimental: Mouse bone marrow derived late-stage endothelial progenitor outgrowth cells (EPOCs) were obtained from BioChain (7030031) and cultured in growth medium (BioChain Z7030035) as described previously (Xie et al. 2014). Endothelial cell migration assay was set up in Trans well-24 well plates with 8-um pore filters. Briefly, 1×10^5 cells/well after 1-hour serum starvation were seeded in the upper chamber, then incubated with conditioned medium from osteoblasts and control in the lower chambers for a further 3 h. The cells in the upper surface of each filter were removed with cotton swabs. The cells that migrated into the lower surface were fixed with 4% PFA for 30 min and then stained with crystal violet. The cell numbers were quantified by counting a centered microscope field per each filter (5 wells for each condition). […] The width of the wound area was quantitatively evaluated using ImageJ (see website at rsb.info.uih.gov/ij/download.html). […] At 0, 24, 48 hours after seeding, cells were incubated with 10-fold diluted Alamar Blue solution (Thermo Fisher) and the supernatant was evaluated with a spectrophotometer (Thermo) (5 wells for each condition). […] Alter 5 hours incubation at 37° C., the number of tube branches each well was observed and quantified by counting four random fields per well with microscopy (5 wells for each condition).
# [3] = test system: bone marrow macrophages (BMMs); assay: In vitro osteoclast formation assay with RANKL and recombinant SLIT3; assay type: cell-based, mouse
# Experimental: Murine bone marrow cells were flushed from the femur and tibia of mice and cultured in petri dishes in α-MEM medium with 10% FBS and 20 ng/ml of rM-CSF. Nonadherent cells were replated into tissue culture dishes and cultured in the same medium for 3 d to obtain osteoclast precursors. The osteoclast precursors then differentiated into osteoclasts in the presence of human RAMKL (50 ng/ml; PeproTech) and M-CSF for 3 days. Peripheral blood mononuclear cells from the whole blood of healthy volunteers were isolated by density gradient centrifugation using Ficoll (Invitrogen, Carlsbad, Calif.). CD14-positive cells were purified from fresh PBMCs using anti-CD14 magnetic beads (Miltenyi Biotec, Auburn, Calif.), as recommended by the manufacturer. Human monocytes were cultured in a-MEM with 10% FBS in the presence of M-CSF (20 ng/ml; PeproTech, Rocky Hill, N.J.) for 2 d to obtain monocyte-derived macrophages. Experiments with human cells were approved by the Hospital for Special Surgery Institutional Review Board.
# Osteoclast culture, differentiation assays. Western Molting and qPCR. In vitro primary osteoclast cultures, quantitative PCR, Western blotting, and TRAP staining were performed as previously described. Primary antibodies were specific for SLIT3. (1:1,000; Cell Signaling) and HSP90 (1:2,000; Sigma).
# [4] = test system: open femoral midshaft fracture; assay: Open femoral midshaft fracture model, systemic IV SLIT3; assay type: in vivo, mouse
# Experimental: as §1
# For histological analysis, hindlimbs were dissected from the mice or human callus, fixed in 10% neutral buffered formalin for 24-48 hours, and decalcified by daily changes of 15% tetrasodium EDTA for 2 weeks. Tissues were dehydrated by passage through an ethanol series, cleared twice in xylene, embedded in paraffin, and sectioned at 7 μm thickness. Decalcified sections were stained with hematoxylin and eosin (H&E). We incubated the slides with primary antibody to mouse EMCN (sc-65495, Santa Cruz, 1:200) and human Slit3 (ab198726, Abcam 1:50) at 37° C. for 2 h and subsequently used a horseradish peroxidase-streptavidin detection system (Dako) to detect the immunoreactivity. The number and volume of positively stained vessels was measured in four random visual fields of callus in 3 sequential sections per mouse in each group.
# All surgical procedures were performed under isoflurane (1-4%) anesthesia via nosecone. Surgical sites were sterilized using a betadine/iodide/isopropanol prep after hair removal by a clipper with a #40 blade and depilatory cream (Nair). After surgery, the visceral lining or muscle was sutured with absorbable Ethicon vicryl sutures (VWR, Cat #95057-014) prior to closing the skin with wound clips that were then removed 2 weeks post-operatively. Animals received intraperitoneal Buprenex (0.5 mg/kg) and oral Meloxicam (2.0 mg/kg) as analgesia prior to surgery and once every 24 hours post-surgery for 3 days. All surgical procedures are approved by the IACUC of Weill Cornell Medical College (Protocol #2012-0005).
# as §2, §3, §4
# [5] = IV twice weekly, 21 days after fracture
# [6] = biomechanical testing, 21 days after fracture
molecule,measurement,setting,value
B1,"fracture healing, local delivery",[1]; implanted at fracture site,enhances bone-fracture healing
same,non-skeletal vascular abundance or morphology,[1]; local delivery,did not impact
same,brain ultrastructure,"[1]; mouse, in vivo",did not impact
same,migration,[2],enhanced migration
same,number of TRAP positive osteoclasts compared with controls,"[3]; BMMs with RANKL and recombinant SLIT3, three days",no significant changes
same,expression of osteoclast marker genes,"[3]; BMMs with RANKL, three days",modestly inhibited
same,bone fracture healing (μCT and histological analysis),"[4]; 5-week-old male mice, IV twice weekly, 21 days",enhancement of bone fracture healing; also recorded: enhances bone-fracture healing
same,bone volume in the callus area relative to controls,[4]; [5],~2 fold
same,vascularization of fracture area including CD31hiEMCNhi endothelium,[4]; [5],increased
same,maximum load sustained by the fracture callus,[4]; [6],significantly enhanced
same,stiffness of the fracture callus,[4]; [6],significantly enhanced
